Earlier results, collected in article PMC12564508.
pKd: −log10 of the molar value.

Molecular target: NS4B (Dengue virus) (UniProt P27909)

NS4A (from UniProt P27909)
pKd: 7.30
